Experimental data: article PMC9729238 (Communications Biology, 2022)

Assays:
[1] = molecular target: Chimera of the α7-nAChR extracellular domain with acetylcholine-binding protein (α7-ECD) (human α7-nAChR / Lymnaea stagnalis AChBP chimera); experiment: cryo-EM structure
[2] = molecular target: T1, Nicotinic acetylcholine receptor of α7 type (α7-nAChR) expressed in HEK293 cells (UniProt P36544 23-502); experiment: flow cytometry on cells; conditions: one partner purified
T1 construct: also called full-length α7 receptor; α7 receptor

## Chimera of the α7-nAChR extracellular domain with acetylcholine-binding protein (α7-ECD) (domain or fragment)
[1]
  stoichiometry N: 5

B1: Weak toxin from Naja kaouthia venom (WTX), recombinant analog (natural protein)
chain: MLTCLNCPEMFCGKFQICRNGEKICFKKLHQRRPLSWRYIRGCADTCPVGKPYEMIECCSTDKCNR
modifications: disulfide (positions not given here); also: five disulfide bonds, pairing not given here
[2]
  IC50: 26 ± 4 µM
